Columns and labels:
Test in all cases: cell-based or functional assay
LIMK1(h) (human) = LIMK1(h) (human) (UniProt P53667)
MAPK2(h) (human) = MAPK2(h) (human) (UniProt P28482)
Aurora-A(h) (human) = target: T1, Aurora-A(h) (human) (UniProt O14965)
T1 sequence (looked up): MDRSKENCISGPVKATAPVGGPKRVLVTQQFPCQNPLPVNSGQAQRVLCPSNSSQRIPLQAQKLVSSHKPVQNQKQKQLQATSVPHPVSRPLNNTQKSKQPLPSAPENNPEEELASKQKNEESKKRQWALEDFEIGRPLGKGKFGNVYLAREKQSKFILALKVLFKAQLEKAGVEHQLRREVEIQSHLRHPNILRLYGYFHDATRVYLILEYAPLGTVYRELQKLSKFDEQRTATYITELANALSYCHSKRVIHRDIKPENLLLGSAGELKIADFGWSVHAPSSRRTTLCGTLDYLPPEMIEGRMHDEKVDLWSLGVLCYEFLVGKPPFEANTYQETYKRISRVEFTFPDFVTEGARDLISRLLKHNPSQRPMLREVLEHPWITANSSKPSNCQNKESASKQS

IRAK4(h) (human) = target: T2, IRAK4(h) (human) (UniProt Q9NWZ3)
T2 sequence (looked up): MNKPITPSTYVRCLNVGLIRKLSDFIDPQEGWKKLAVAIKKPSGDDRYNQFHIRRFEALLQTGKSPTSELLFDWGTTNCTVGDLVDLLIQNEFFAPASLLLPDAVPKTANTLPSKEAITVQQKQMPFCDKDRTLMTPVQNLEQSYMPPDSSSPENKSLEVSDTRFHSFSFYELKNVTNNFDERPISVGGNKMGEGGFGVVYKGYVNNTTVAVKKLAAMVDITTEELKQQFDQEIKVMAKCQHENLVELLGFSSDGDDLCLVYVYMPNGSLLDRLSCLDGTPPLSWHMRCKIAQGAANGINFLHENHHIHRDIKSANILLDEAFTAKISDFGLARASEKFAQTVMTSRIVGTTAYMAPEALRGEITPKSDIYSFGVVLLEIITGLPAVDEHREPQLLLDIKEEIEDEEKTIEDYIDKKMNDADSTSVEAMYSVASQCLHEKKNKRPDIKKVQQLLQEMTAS

SRPK2(h) (human) = SRPK2(h) (human) (UniProt P78362)
Sequence of SRPK2(h) (human) (P78362 whole entry): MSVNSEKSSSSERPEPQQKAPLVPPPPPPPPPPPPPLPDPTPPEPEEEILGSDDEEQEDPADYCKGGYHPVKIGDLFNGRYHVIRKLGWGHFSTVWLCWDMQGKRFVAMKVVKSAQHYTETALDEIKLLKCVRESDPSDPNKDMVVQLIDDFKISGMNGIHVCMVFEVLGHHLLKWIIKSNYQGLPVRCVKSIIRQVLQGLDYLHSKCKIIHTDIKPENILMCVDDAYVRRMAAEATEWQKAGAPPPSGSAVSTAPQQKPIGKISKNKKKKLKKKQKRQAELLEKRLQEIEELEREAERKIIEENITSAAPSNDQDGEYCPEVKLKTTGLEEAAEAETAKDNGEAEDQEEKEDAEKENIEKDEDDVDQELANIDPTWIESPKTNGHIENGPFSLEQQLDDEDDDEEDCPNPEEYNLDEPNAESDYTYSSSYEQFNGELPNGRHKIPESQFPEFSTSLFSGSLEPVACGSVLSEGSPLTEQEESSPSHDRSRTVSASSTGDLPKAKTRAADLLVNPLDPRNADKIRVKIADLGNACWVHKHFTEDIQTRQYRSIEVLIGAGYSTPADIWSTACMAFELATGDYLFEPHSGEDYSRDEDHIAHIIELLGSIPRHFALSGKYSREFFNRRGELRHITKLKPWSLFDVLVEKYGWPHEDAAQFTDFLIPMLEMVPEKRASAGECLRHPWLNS

BTK(h) (human) = BTK(h) (human) (UniProt Q06187)
Sequence of BTK(h) (human) (Q06187 whole entry): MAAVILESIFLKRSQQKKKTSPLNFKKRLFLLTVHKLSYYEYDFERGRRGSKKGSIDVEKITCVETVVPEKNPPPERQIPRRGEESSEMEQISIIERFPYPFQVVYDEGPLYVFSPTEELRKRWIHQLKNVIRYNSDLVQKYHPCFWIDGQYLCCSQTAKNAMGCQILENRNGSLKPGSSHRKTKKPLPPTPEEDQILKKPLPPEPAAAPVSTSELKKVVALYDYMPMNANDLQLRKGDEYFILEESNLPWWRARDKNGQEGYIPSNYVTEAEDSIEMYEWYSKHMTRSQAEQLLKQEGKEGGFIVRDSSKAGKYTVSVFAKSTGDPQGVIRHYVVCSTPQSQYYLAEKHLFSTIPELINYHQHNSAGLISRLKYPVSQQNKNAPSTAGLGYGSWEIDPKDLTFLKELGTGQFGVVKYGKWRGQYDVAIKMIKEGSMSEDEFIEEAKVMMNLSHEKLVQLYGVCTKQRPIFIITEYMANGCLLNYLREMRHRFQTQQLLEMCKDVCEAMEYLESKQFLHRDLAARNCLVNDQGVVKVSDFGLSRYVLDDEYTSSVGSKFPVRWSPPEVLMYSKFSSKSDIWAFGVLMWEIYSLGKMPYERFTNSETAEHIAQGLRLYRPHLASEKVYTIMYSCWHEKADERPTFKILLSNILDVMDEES

ALK(h) (human) = ALK(h) (human) (UniProt Q9UM73)
Sequence of ALK(h) (human) (Q9UM73 1058-1620 limits assumed): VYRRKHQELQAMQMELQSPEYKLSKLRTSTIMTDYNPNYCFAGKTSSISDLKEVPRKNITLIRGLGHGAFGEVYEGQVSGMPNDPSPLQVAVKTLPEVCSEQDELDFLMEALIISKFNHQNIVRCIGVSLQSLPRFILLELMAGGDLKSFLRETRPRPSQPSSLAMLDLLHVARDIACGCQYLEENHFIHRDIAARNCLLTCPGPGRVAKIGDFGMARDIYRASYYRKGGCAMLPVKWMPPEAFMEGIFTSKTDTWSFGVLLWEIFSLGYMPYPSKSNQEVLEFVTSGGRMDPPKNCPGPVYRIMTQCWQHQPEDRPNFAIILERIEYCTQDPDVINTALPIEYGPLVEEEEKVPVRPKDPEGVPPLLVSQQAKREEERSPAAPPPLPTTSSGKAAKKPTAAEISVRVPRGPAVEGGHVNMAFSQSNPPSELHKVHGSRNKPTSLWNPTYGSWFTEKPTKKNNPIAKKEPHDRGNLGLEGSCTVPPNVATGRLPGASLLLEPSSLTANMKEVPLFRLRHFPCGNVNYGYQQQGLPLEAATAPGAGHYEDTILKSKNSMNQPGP

WNK2(h) (human) = WNK2(h) (human) (UniProt Q9Y3S1)
Sequence of WNK2(h) (human) (Q9Y3S1 166-489 limits assumed): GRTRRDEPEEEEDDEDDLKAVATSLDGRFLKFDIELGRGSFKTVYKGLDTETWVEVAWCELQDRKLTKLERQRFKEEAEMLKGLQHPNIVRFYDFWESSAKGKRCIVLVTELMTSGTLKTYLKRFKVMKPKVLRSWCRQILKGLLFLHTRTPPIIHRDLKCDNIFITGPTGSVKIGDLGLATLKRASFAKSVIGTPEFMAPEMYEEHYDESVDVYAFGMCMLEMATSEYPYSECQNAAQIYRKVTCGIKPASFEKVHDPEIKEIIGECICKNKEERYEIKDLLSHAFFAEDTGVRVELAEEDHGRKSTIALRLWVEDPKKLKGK

CDK1/cyclinB(h) (human) = CDK1/cyclinB(h) (human) (UniProt P06493)
Sequence of CDK1/cyclinB(h) (human) (P06493 whole entry, chain 1 of 2): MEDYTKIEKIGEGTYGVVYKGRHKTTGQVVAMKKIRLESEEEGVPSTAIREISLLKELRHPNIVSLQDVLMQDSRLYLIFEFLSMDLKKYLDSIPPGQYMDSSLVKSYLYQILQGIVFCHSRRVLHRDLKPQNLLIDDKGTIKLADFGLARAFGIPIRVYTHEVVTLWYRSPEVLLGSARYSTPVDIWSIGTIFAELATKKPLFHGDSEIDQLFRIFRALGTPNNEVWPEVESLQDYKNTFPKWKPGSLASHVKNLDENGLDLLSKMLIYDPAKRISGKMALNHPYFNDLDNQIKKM
Sequence of CDK1/cyclinB(h) (human) (P14635 whole entry, chain 2 of 2, further chain): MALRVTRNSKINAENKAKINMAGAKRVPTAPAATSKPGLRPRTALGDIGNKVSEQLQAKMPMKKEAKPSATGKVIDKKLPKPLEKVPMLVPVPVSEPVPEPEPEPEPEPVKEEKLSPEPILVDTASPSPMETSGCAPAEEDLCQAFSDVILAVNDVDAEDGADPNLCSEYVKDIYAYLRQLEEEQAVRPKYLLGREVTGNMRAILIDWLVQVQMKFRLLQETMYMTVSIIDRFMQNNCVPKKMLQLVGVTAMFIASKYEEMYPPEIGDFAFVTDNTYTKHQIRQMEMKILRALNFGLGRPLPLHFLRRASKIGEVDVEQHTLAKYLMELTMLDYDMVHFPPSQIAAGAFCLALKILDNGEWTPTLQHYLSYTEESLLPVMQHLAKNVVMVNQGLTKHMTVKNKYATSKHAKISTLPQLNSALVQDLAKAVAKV

Flt1(h) (human) = target: T3, Flt1(h) (human) (UniProt P17948)
T3 sequence (looked up): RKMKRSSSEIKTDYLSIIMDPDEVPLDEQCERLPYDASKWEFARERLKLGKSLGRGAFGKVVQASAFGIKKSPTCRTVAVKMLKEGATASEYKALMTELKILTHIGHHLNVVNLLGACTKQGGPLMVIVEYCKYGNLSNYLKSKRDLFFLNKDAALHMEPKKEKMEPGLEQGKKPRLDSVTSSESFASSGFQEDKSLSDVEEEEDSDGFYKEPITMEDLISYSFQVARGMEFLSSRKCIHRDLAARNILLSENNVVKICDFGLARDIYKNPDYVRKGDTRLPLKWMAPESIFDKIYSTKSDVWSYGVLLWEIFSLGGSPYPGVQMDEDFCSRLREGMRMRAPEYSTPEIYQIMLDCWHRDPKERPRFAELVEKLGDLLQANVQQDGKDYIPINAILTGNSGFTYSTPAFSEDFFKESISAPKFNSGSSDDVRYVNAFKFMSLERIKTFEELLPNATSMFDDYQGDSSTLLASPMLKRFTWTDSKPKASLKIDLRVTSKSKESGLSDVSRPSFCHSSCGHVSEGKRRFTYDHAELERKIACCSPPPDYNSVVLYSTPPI

MKK6(h) (human) = MKK6(h) (human) (UniProt P52564)
Sequence of MKK6(h) (human) (P52564 whole entry): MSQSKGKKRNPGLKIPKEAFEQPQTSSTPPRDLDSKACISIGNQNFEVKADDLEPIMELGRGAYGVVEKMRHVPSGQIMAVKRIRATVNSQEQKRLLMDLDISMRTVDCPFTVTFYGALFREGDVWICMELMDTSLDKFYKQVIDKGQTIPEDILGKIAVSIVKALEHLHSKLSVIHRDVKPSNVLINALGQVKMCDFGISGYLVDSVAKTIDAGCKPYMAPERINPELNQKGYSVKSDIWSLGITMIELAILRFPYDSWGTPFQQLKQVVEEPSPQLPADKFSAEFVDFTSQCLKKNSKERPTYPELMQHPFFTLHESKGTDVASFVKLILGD

Itk(h) (human) = target: T4, Itk(h) (human) (UniProt Q08881)
T4 sequence (looked up): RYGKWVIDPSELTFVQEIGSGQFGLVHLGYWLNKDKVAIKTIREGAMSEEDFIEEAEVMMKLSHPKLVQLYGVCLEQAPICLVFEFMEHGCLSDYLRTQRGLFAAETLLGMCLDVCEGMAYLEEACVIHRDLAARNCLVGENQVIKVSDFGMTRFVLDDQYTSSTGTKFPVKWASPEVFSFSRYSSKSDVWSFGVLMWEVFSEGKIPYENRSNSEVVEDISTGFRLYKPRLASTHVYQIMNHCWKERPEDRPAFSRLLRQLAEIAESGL

NEK3(h) (human) = target: T5, NEK3(h) (human) (UniProt P51956)
T5 sequence (looked up): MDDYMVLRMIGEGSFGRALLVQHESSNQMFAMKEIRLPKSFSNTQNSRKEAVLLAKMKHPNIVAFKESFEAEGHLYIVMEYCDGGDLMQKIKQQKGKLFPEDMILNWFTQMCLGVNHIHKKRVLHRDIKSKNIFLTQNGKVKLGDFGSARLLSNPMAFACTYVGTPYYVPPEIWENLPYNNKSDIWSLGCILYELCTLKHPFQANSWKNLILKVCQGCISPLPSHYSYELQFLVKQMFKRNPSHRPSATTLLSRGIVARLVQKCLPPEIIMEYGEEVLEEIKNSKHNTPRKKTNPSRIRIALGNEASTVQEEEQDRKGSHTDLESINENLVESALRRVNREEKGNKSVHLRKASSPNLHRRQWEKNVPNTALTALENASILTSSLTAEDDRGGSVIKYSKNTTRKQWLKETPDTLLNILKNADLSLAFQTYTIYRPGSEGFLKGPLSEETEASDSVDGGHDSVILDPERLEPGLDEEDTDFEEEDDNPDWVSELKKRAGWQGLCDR

Mer(h) (human) = target: T6, Mer(h) (human) (UniProt Q12866)
T6 sequence (looked up): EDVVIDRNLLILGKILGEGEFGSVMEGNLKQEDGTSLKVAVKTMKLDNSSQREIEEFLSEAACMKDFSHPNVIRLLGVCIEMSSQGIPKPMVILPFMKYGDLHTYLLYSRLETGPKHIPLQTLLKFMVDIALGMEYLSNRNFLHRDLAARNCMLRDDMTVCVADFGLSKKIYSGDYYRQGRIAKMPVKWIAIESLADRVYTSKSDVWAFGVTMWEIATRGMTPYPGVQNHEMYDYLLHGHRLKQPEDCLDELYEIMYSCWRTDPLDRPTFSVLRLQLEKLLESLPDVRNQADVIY

MSSK1(h) (human) = MSSK1(h) (human) (UniProt Q9UPE1)
Sequence of MSSK1(h) (human) (Q9UPE1 whole entry): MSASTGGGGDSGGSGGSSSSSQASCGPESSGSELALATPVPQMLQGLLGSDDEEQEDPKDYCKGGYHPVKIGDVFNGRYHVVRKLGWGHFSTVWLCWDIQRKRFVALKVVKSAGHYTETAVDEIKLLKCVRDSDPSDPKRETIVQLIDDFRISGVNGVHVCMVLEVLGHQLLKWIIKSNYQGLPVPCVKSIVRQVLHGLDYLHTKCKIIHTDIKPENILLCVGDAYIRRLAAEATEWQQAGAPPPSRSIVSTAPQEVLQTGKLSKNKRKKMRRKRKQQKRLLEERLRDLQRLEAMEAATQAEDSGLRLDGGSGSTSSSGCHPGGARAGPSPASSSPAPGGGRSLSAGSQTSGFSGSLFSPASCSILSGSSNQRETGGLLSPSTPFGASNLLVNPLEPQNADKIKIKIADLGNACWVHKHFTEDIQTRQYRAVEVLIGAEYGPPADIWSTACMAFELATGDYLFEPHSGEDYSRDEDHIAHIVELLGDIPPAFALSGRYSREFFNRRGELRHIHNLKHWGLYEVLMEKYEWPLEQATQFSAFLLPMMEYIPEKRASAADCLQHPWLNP

Sequence of LIMK1(h) (human) (P53667 285-638 limits assumed): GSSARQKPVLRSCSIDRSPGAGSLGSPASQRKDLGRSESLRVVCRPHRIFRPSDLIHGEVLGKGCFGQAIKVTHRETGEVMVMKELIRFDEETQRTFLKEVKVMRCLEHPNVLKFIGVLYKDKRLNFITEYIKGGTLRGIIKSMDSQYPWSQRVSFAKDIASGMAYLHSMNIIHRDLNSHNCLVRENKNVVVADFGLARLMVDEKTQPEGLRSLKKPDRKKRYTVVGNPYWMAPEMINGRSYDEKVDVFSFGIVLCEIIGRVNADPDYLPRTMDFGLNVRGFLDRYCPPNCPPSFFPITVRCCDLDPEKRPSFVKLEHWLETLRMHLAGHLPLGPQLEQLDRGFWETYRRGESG
Sequence of MAPK2(h) (human) (P28482 whole entry): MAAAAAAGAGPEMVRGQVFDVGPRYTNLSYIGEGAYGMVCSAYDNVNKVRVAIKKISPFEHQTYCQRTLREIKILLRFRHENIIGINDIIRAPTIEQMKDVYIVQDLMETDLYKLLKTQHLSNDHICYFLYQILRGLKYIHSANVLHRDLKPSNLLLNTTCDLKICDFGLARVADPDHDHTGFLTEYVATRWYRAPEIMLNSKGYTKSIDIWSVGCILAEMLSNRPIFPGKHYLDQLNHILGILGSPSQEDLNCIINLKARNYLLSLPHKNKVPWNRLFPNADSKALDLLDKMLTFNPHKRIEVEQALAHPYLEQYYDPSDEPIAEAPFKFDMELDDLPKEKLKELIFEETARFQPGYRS

% activity, 100 µM (LIMK1(h) (human)): 87%
% activity, 100 µM (MAPK2(h) (human)): 60%
% activity, 100 µM (Aurora-A(h) (human)): 110%
% activity, 100 µM (IRAK4(h) (human)): 3%
% activity, 100 µM (SRPK2(h) (human)): 80%
% activity, 100 µM (BTK(h) (human)): 18%
% activity, 100 µM (ALK(h) (human)): 12%
% activity, 100 µM (WNK2(h) (human)): 8%
% activity, 100 µM (CDK1/cyclinB(h) (human)): 57%
% activity, 100 µM (Flt1(h) (human)): 27%
% activity, 100 µM (MKK6(h) (human)): 18%
% activity, 100 µM (Itk(h) (human)): 7%
% activity, 100 µM (NEK3(h) (human)): 20%
% activity, 100 µM (Mer(h) (human)): 17%
% activity, 100 µM (MSSK1(h) (human)): 22%
Substance: MMI-0500 (peptide)

From patent US20140072613A1, “Compositions and Methods for Treating Cutaneous Scarring” (priority 2012, published 2014)
